# From patent US9890409B2, “Composition for astringin product” (INDUSTRY FOUNDATION OF CHONNAM NATIONAL UNIVERSITY, priority 2015, dated 2018)
# Experiment: Oxidation of polydatin to astringin (3′-hydroxylation), steady-state kinetics by HPLC
# Format: biochemical
# Settings: polydatin as substrate, NADPH-generating system, 37° C., 30 minutes, 100 mM potassium phosphate buffer pH 7.4
# Procedure: P450 BM3 50 pmol and […] of polydatin as a substrate were added to 0.25 ml of 100 mM potassium phosphate buffer (pH 7.4) to perform a typical steady-state reaction. In order to start the reaction, the NADPH-generating system (10 mM glucose 6-phosphate, 0.5 mM NADP^+ and 1 IU yeast glucose 6-phosphate-dihydrogenase per 1 ml of final concentration) was added. 20 mM polydatin solution was prepared with DMSO, and diluted with an enzyme reaction solution, thereby preparing a reaction mixture so that the final organic solvent has a concentration of 1%/(v/v) or less. The solution was reacted at 37° C. for 30 minutes, and the reaction was terminated with ethyl-acetate which is cooled by using ice with twice amount.
# The reaction mixture was centrifuged, the supernatant was […]. Then, the solvent was evaporated under a nitrogen gas, and analyzed by HPLC. A sample (30 μl) was injected into Gemini C18 column (4.6 mm×150 mm, 5 μm, Phenomenex, Torrance, Calif.). […] The mobile phase flowed at a rate of 1 ml/minute and an eluent was measured by 320 nm of UV.
# In order to examine whether polydatin is oxidized by CYP102A1(P450 BM3), oxidativity of polydatin was measured at a substrate concentration fixed to be 1000 μM in the P450 wild-type CYP102A1, the CYP102A1 mutant, the CYP102A1 chimera, and the mutant of CYP102A1 chimera. […]
molecule,measurement,setting,value
"M16V3: chimera protein: heme domain of CYP102A1 Mutant#16 (R47L/F81I/F87V/E143G/L188Q/E267V) fused with reductase domain of natural variant CYP102A1.3 (protein, CYP102A1 chimeric protein M16V3 aa seq) TIKEMPQPKTFGELKNLPLLNTDKPVQALMKIADELGEIFKFEAPGLVTRYLSSQRLIKEACDESRFDKNLSQALKFVRDFAGDGIVTSWTHEKNWKKAHNILLPSFSQQAMKGYHAMMVDIAVQLVQKWERLNADEHIEVPGDMTRLTLDTIGLCGFNYRFNSFYRDQPHPFITSMVRALDEAMNKQQRANPDDPAYDENKRQFQEDIKVMNDLVDKIIADRKASGEQSDDLLTHMLNGKDPETGEPLDDENIRYQIITFLIAGHVTTSGLLSFALYFLVKNPHVLQKAAEEAARVLVDPVPSYKQVKQLKYVGMVLNEALRLWPTAPAFSLYAKEDTVLGGEYPLEKGDELMVLIPQLHRDKTIWGDDVEEFRPERFENPSAIPQHAFKPFGNGQRACIGQQFALHEATLVLGMMLKHFDFEDHTNYELDIKETLTLKPEGFVVKAKSKKIPLGGIPSPSTEQSAKKVRKKVENAHNTPLLVLYGSNMGTAEGTARDLADIAMSKGFAPQVATLDSHAGNLPREGAVLIVTASYNGHPPDNAKQFVDWLDQASADDVKGVRYSVFGCGDKNWATTYQKVPAFIDETLAAKGAENIADRGEADASDDFEGTYEEWREHMWSDVAAYFNLDIENSEDNKSTLSLQFVDSAADMPLAKMHGAFSANVVASKELQQLGSERSTRHLEIALPKEASYQEGDHLGVIPRNYEGIVNRVTARFGLDASQQIRLEAEEEKLAHLPLGKTVSVEELLQYVELQDPVTRTQLRAMAAKTVCPPHKVELEALLEKQAYKEQVLAKRLTMLELLEKYPACEMEFSEFIALLPSISPRYYSISSSPHVDEKQASITVSVVSGEAWSGYGEYKGIASNYLANLQEGDTITCFVSTPQSGFTLPKDSETPLIMVGPGTGVAPFRGFVQARKQLKEQGQSLGEAHLYFGCRSPHEDYLYQEELENAQNEGIITLHTAFSRVPNQPKTYVQHVMERDGKKLIELLDQGAHFYICGDGSQMAPDVEATLMKSYADVYEVSEADARLWLQQLEEKGRYAKDVWAG","kcat, astringin formation",,0.00417 ± 0.0005 s⁻¹
same,Km,"read-out: Km, astringin formation",390 ± 111 µM
